Assay results taken from US20090053725 (United States as represented by Secretary of the Air Force, published 2009).

B1: STJ-9 annealed quenched complex (Plus STJ-9 / Negative STJ-9) (dsDNA)
DNA 1: GGTAACTAGCATTCATTTCCCACACCCGTCCCGTCCATAT
DNA 2: ATATGGACGGGACGGGTGT
modifications: 3' amine on plus strand; 5' BHQ2 on negative strand

Legend:
Ovalbumin = Ovalbumin (UniProt P01012 P01012:2-386); assay: control protein, no fluorescence increase; same conditions; Example 1 likewise no increase; details: tags: Sigma-Aldrich; immobilized on maleic anhydride plate; label: Birch Yellow T1 Evitag quantum dot on plus strand; BHQ2 quencher on negative strand; partial duplex, 3' 19 nt of the aptamer paired, 5' single-stranded overhang
Shiga toxin = Shiga toxin (UniProt Q9FBI2;Q7BQ98 Q9FBI2:23-315,Q7BQ98:21-89)
Shiga toxin, sequence (Q9FBI2 23-315, chain 1 of 2): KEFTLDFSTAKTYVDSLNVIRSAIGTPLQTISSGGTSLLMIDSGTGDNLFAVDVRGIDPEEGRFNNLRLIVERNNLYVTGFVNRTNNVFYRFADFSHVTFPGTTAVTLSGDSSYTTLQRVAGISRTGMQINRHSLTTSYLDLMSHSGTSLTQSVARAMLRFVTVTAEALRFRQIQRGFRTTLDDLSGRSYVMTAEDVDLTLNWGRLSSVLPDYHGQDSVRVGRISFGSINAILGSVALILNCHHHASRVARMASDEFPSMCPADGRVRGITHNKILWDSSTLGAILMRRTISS
Shiga toxin, sequence (Q7BQ98 21-89, chain 2 of 2): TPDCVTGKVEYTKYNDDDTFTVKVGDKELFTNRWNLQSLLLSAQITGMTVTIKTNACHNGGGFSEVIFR

Ovalbumin, sequence (P01012 2-386, one chain of several): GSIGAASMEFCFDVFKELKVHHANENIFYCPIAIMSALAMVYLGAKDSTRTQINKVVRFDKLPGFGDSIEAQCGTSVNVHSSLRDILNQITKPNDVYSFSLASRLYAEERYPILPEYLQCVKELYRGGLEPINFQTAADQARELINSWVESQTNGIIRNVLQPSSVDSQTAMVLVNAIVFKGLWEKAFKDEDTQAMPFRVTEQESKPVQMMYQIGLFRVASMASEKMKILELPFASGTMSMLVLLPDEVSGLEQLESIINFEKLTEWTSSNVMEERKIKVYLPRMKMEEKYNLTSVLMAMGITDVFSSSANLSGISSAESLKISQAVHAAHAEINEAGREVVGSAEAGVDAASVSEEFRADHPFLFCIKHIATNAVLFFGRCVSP

Binder	binding result (Ovalbumin)	binding result (Shiga toxin)
B1	no binding	–
GGTAACTAGCATTCATTTCCCACACCCGTCCCGTCCATAT (ssDNA) [Plus STJ-9]	–	binds
